The labels stand for the following.
T1: human MAdCAM expressed on cells (human, UniProt Q13477 19-382)
T1 construct: whole, on cells
T1 sequence (looked up): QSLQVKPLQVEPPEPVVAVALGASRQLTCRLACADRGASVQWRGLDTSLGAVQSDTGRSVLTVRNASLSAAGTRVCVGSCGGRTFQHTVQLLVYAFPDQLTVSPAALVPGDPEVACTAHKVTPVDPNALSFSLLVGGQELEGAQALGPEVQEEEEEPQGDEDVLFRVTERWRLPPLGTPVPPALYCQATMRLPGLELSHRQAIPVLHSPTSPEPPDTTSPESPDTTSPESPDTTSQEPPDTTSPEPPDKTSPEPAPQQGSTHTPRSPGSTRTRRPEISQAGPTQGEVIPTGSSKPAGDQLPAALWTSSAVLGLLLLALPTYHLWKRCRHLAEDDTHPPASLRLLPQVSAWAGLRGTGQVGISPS

T2: mouse MAdCAM expressed on cells (mouse, UniProt Q61826 22-405)
T2 construct: whole, on cells
T2 sequence (looked up): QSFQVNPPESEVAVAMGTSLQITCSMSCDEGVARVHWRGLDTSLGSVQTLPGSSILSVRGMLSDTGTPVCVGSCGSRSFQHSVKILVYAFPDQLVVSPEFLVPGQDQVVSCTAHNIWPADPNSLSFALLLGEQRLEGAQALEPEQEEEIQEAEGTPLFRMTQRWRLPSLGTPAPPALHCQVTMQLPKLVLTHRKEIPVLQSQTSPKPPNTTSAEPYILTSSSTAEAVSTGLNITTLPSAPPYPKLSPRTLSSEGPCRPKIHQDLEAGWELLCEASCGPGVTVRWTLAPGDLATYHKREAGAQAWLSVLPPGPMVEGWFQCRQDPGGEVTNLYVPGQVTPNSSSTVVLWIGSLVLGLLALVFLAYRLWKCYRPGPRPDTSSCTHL

B1: MAdCAM Antibody Table 2 clone 54 (antibody, V domains shown)
VH: QVQLVQSGAEVKKPGSSVKVSCKASGGTLSRYGVSWVRQAPGQGLEWMGGIIPIFGTTNYAQKFQGRVTITADESTSTAYMELSSLRSEDTAVYYCARDRVYYDSSGYPTWYFDLWGRGTLVTVSS
VL: EIVMTQSPATLSVSPGERATLSCRASQSVSSSYLAWYQQKPGQAPRLLIYGASTRATGIPARFSGSGSGTEFTLTISSLQSEDFAVYYCQQYGSSPITFGQGTKVEIK
notes: IgG format
B2: MAdCAM Antibody Table 2 clone 66 (antibody, V domains shown)
VH: QVQLVQSGAEVKKPGASVKVSCKASGYTFTGHYMHWVRQAPGQGLEWMGIINPSGGSTSYAQKFQGRVTMTRDTSTSTVYMELSSLRSEDTAVYYCARDGAWFGEEYYYGMDVWGQGTTVTVSS
VL: DIQMTQSPSSLSASVGDRVTITCRASQGISNWLAWYQQKPGKAPKLLIYDASNLETGVPSRFSGSGSGTDFTLTISSLQPEDFATYYCQQYYSFPLYTFGQGTKVEIK
notes: IgG format
B3: MAdCAM Antibody Table 2 clone 62 (antibody, V domains shown)
VH: QVQLVQSGAEVKKPGASVKVSCKASGYTFTSYDINWVRQAPGQGLEWMGWINPNSGTTGYAQKFQGRVTMTRDTSTSTVYMELSSLRSEDTAVYYCARSPYYYYGMDVWGQGTTVTVSS
VL: DIQMTQSPSSLSASVGDRVTITCRASHFISRWVAWYQQKPGKAPKLLIYAASTLQSGVPSRFSGSGSGTDFTLTISSLQPEDFATYYCQQSYSGISFGPGTKVDIK
notes: IgG format
B4: MAdCAM Antibody Table 2 clone 59 (antibody, V domains shown)
VH: EVQLLESGGGLVQPGGSLRLSCAASGFSFSDYGMHWVRQAPGKGLEWVSAISGSGGSTYYADSVKGRFTISRDNSKNTLYLQMNSLRAEDTAVYYCARDGGWQPAAILDYWGQGTLVTVSS
VL: DIQMTQSPSSLSASVGDRVTITCRASQGISNNLNWYQQKPGKAPKLLIYDASNLETGVPSRFSGSGSGTDFTLTISSLQPEDFATYYCQQSYSTPLTFGGGTKVEIK
notes: IgG format
B5: MAdCAM Antibody Table 2 clone 53 (antibody, V domains shown)
VH: QVQLVQSGAEVKKPGASVKVSCKASGYTFTSYYMHWVRQAPGQGLEWMGWMNPNSGNTGYAQKFQGRVTMTRDTSTSTVYMELSSLRSEDTAVYYCAREGLGYCTNGVCWNYYGMDVWGQGTLVTVSS
VL: B4 VL with N31S, N32W, N34A, D50G, N53S, E55Q, T56S, L96Y, G100Q
notes: IgG format
B6: MAdCAM Antibody Table 2 clone 41 (antibody, V domains shown)
VH: QVQLVQSGAEVKKPGASVKVSCKASGYTFTSYYMHWVRQAPGQGLEWMGIINPSGGSTSYAQKFQGRVTMTRDTSTSTVYMELSSLRSEDTAVYYCARDTGYSYGRYYYYGMDVWGQGTLVTVSS
VL: B4 VL with G28S, S30G, N31R, N32W, N34A, E55Q, T56S, T94I, L96I, G100Q
notes: IgG format
B7: MAdCAM Antibody Table 2 clone 38 (antibody, V domains shown)
VH: QVQLVQSGAEVKKPGASVKVSCKASGYTFTDYFLHWVRQAPGQGLEWMGWMNPTSGNTGYAQKFQGRVTMTRDTSTSTVYMELSSLRSEDTAVYYCAREGEGSGFDYWGQGTLVTVSS
VL: B4 VL with S30N, N31S, N32W, N34A
notes: IgG format
B8: MAdCAM Antibody Table 2 clone 67 (antibody, V domains shown)
VH: QVQLVQSGAEVKKPGASVKVSCKASGYTFTGYYMHWVRQAPGQGLEWMGMIYPRDGSTSYAQKFQGRVTMTRDTSTSTVYMELSSLRSEDTAVYYCAMTGWGYGMDVWGKGTTVTVSS
VL: B4 VL with S30N, N32Y, N34A, N53T, E55Q, T56S, T94A, L96P, G100Q, V104L
notes: IgG format
B9: MAdCAM Antibody Table 2 clone 64 (antibody, V domains shown)
VH: EVQLLESGGGLVQPGGSLRLSCAASGFTFSNSDMNWVRQAPGKGLEWVAHIWNDGSQKYYADSVKGRFTISRDNSKNTLYLQMNSLRAEDTAVYYCARDRTDPGYSSAMDVWGQGTTVTVSS
VL: B4 VL with G28D, S30R, N32Y, N34G, N53S, S91A, Y92T, T94L
notes: IgG format
B10: MAdCAM Antibody Table 2 clone 42 (antibody, V domains shown)
VH: QVQLVQSGAEVKKPGASVKVSCKASGYTLTDYYMHWVRQAPGQGLEWMGIINPSGGSTSYAQKFQGRVTMTRDTSTSTVYMELSSLRSEDTAVYYCAREEYSSSSGYFDYWGQGTLVTVSS
VL: B4 VL with N31S, N32W, N34A, D50A, N53S, E55Q, T56S, G100Q
notes: IgG format
B11: MAdCAM Antibody Table 2 clone 39 (antibody, V domains shown)
VH: QVQLVQSGAEVKKPGASVKVSCKASGYTFTSYYMHWVRQAPGQGLEWMAWMNPNSGNTGYAQKFQGRVTMTRDTSTSTVYMELSSLRSEDTAVYYCARDYDFWSGSLGYWGQGTLVTVSS
VL: B4 VL with N32Y, N34A, D50A, N53S, E55Q, T56S, L96W, G100Q
notes: IgG format
B12: MAdCAM Antibody Table 2 clone 56 (antibody, V domains shown)
VH: EVQLVESGGGLVKPGGSLRLSCAASGFTFSSYWMSWVRQAPGKGLEWVSAIGTGGGTYYAAPVKGRFTISRDDSKNTLYLQMNSLKTEDTAVYYCAREWLVPYYGMDVWGQGTTVTVSS
VL: B4 VL with G28S, N31R, N32W, N34A, D50G, E55Q, T56S, L96W, G100Q
notes: IgG format
B13: MAdCAM Antibody Table 2 clone 57 (antibody, V domains shown)
VH: EVQLLESGGGLVQPGGSLRLSCAASGFSVSSNYMSWVRQAPGKGLEWVAGISYDGSSKPYADSVKGRFTISRDNSKNTLYLQMNSLRAEDTAVYYCARSRGIAARPLQHWGQGTLVTVSS
VL: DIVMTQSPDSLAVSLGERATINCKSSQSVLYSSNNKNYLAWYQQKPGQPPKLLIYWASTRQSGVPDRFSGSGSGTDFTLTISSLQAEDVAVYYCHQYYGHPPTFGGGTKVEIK
notes: IgG format
B14: MAdCAM Antibody Table 2 clone 44 (antibody, V domains shown)
VH: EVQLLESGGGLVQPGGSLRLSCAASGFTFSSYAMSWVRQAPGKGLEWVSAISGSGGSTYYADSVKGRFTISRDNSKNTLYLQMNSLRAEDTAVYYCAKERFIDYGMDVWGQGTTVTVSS
VL: DIQMTQSPSSLSASVGDRVTITCQASQDISNYLNWYQQKPGKAPKLLIYAASSLQSGVPSRFSGSGSGTDFTLTISSLQPEDFATYYCQQTYSGWTFGPGTKVDIK
notes: IgG format
B15: MAdCAM Antibody Table 2 clone 43 (antibody, V domains shown)
VH: QVQLVQSGAEVKKPGASVKVSCKASGYTFTSYGISWVRQAPGQGLEWMGWMHPKSGDTGLTQKFQGRVTMTRDTSTSTVYMELSSLRSEDTAVYYCARDTPYYYYGMDVWGQGTTVTVSS
VL: DIQMTQSPSSLSASVGDRVTITCRASQSISSWLAWYQQKPGKAPKLLIYAASSLQSGVPSRFSGSGSGTDFTLTISSLQPEDFATYYCQQSYSVPITFGQGTKVEIK
notes: IgG format
B16: MAdCAM Antibody Table 2 clone 69 (antibody, V domains shown)
VH: QVQLVQSGAEVKKPGASVKVSCKASGYTFTSYYMHWVRQAPGQGLEWMGIIDPSGGSTSYAQKFQGRVTMTRDTSTSTVYMELSSLRSEDTAVYYCAREEWSSGGVGYFDYWGQGTLVTVSS
VL: B15 VL with S28G, W32Y, A51T, S56T, S91T, V94I, K103R, V104L
notes: IgG format
B17: MAdCAM Antibody Table 2 clone 70 (antibody, V domains shown)
VH: QVQLVQSGAEVKKPGASVKVSCKASGYPFTDYYMHWVRQAPGQGLEWMGWIKPNSGDTEYAQKFQGRVTMTRDTSTSTVYMELSSLRSEDTAVYYCARDRFVGKPDYYYYGMDVWGQGTMVTVSS
VL: B15 VL with S31V, S93D, V94T, I96Y, V104L
notes: IgG format
B18: MAdCAM Antibody Table 2 clone 61 (antibody, V domains shown)
VH: QVQLVQSGAEVKKPGASVKVSCKASGDTFTGYYIHWVRQAPGQGLEWMGWINPNSGGTNYAQKFQGRVTMTRDTSTSTVYMELSSLRSEDTAVYYCARSGLWLGSYYGMDVWGQGTLVTVSS
VL: B15 VL with S28T, S31I, A50D, S53T, S91Y, Y92S, V94Y, I96L
notes: IgG format
B19: MAdCAM Antibody Table 2 clone 68 (antibody, V domains shown)
VH: EVQLLESGGGLVQPGGSLRLSCAASGFTFGDYAMSWVRQAPGKGLEWVAVVSYDGTNKYYADSVKGRFTISRDNSKNTLYLQMNSLRAEDTAVYYCAKDICSSTSCYFDLWGRGTLVTVSS
VL: DIQMTQSPSSLSASVGDRVTITCRASQNINNYVNWYQQKPGKAPKLLIYDASNLETGVPSRFSGSGSGTDFTLTISSLQPEDFATYYCQQANSFPPTFGQGTRLEIK
notes: IgG format

Changes are numbered by the printed parent chain.

One assay deals with T1, human MAdCAM expressed on cells. The experiment in a line: cell binding.
On to B1, for which the binding result is “binds”.

Regarding B2, the binding result is “binds”.

Consider B3, for which the binding result was “binds”.

As for B4, the binding result is recorded as “binds”.

For B5, the binding result is listed as “binds”.

B6: the binding result is listed as “binds”.

With B7, the binding result is “binds”.

Turning to B8, the binding result is “binds”.

With B9, the binding result is “binds”.

For B10, the binding result is “binds”.

For the molecule B11, the binding result is “binds”.

Regarding B12, the binding result is “binds”.

On to B13, for which the binding result is listed as “binds”.

As for B14, the binding result is “binds”.

Take B15: the binding result is given as “binds”.

Take B16: the binding result was “binds”.

For B17, the binding result is “binds”.

As to B18, the binding result is “binds”.

Take B19: the binding result is reported as “binds”.

A further assay has as its target T2, mouse MAdCAM expressed on cells. Kind of assay: cell binding.
With B1, the binding result was “no binding”.

As to B2, the binding result is on record as “no binding”.

With B3, the binding result is “no binding”.

In the case of B4, the binding result was “no binding”.

Turning to B5, the binding result was “no binding”.

Consider B6, for which the binding result was “no binding”.

With B7, the binding result is “no binding”.

As to B8, the binding result was “no binding”.

B9: the binding result was “no binding”.

Turning to B10, the binding result was “no binding”.

As to B11, the binding result was “no binding”.

In the case of B12, the binding result is reported as “no binding”.

With B13, the binding result is “no binding”.

In the case of B14, the binding result is recorded as “no binding”.

Consider B15, for which the binding result is listed as “no binding”.

Take B16: the binding result is reported as “no binding”.

In the case of B17, the binding result is given as “no binding”.

B18: the binding result was “no binding”.

In the case of B19, the binding result is “no binding”.
